Experiment: yeast display, Sf9 membrane polyspecificity reagent, FACS + sequencing; frameworks hold sequencing errors
Procedure, shortened: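 A nanobody's polyreactivity label depends on the gate it was sorted from. Yeast display cells were stained with 10% biotinylated, detergent-solubilized Sf9 membrane reagent for 1 hour at 4 °C, enriched on streptavidin microbeads and sorted by FACS. The low and high (top ~1%) gates were set on anti-HA fluorescence for expression and streptavidin fluorescence for reagent binding.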

Sequence	polyreactivity (PSR sort gate)
QVQLVESGGGLVQAGGSLRLSCAASGSIFHANAMGWYRQAPGKERELVAAITRSGRSTYYADSVKGRFTISRDNAKNTVYLQMNSLKPEDTAVYYCAARYYAGGLSSYDYWGQGTQVTVSS	high polyreactivity
QVQLVESGGGLVQAGGSLRLSCAASGITFYEYAMGWYRQAPGKEREFVAAIDDGDSSTYYADSVKGRFTISRDNGKNTVYLQMNTLKPEDSAVFDCNADPYYDYSLNWGDYWGQGTQVTVSS	low polyreactivity
QVQLVESGGGLVQAGGSLRLSCAASGRIFAFYALGWYIQAPGKERELVAAISWSDDITYYADSVKGRFTISRDNAKNTVYSQMNSLKPEDTAVYYCAYRRRGYAFSSDYWGQGTQVTVSS	high polyreactivity
QVQLVESGGGLVQAGGSLRLSCAASGSTFRTYAMGWYRQAPGKERELVATITRTGGSTYYADSVKGRFTISRDNAKNTVYLQMNSLKPEDTAVYYCAARRSHQYRGPHFNYWGQGTLVTVSS	low polyreactivity
RVHLQESGGGLVQAGGSLRLSCAASGTIFIRGDMGWYRQAPGKEREFVATIDTVSNTYYADSEKGRFTISRDNAKNAVYLQMNCLNPGDTAVYYCVVDYQLAGRLRYWGQGTQVTLSS	low polyreactivity
QVQLVESGGGLVQAGGSLRLSCAASGSIFLDYAMGWYRQAPGKERELVAGITISGGSTYYAVSVKGRFTISRDNAKNTVYLQMYSLNREDTAVYYCAKVAPRSSSSQEYYYWGQGTQVTVSS	low polyreactivity
QVQLVESGGGLVQAGGSLRLSCAASGSTFEQYAMGWYRQAPGKERELVASISTGGGRTYYADSVKGRFTISRDNAKNTVFLQMNSLKPEDTAVYYCNKRYRGYKTGYSRYDYWGQGTQVTVSS	low polyreactivity
QVQLVESGVGLVQAGGSLSLSCAATGRIFNSYMGWYRQAPGKERELDAAISWSSGTSTYYADSVKGRFTISRDNAKNTVYLQMNSLKPEDTAVYYCNADDYYGPYPEEYDYWGQGTQVTVSS	low polyreactivity
QVQLVESGGGLVQAGGSLRLSCAASGRSFPWYGMGWYRQAPGKERELVAAISRTGGNTYYADSVKGRFTISRDNAKNTVYLQMNSLKPEDTAVYYCIAGYYSNRSYFYDYGYWGQGTQVTVSS	high polyreactivity
QVQLVESGGGLVQAGGSLRLSCAASGSTFGFNVMGWYRQAPGKERELVAVITSDGNTYYADSVKGRFTISRDNAKNTVYLQMNSLKPEDTAVYYCAVSELGTPYGYWGQGTQVTVSS	low polyreactivity
QVQLVESGGCLVPAGGSLRLSCAASGRTFYYNAMGWYRQAPGKERELVAAISSSGGRTYYADSVKGRFTISRDNGKNTVYLQMNSLKPEDTAVFYCAALTNARGFDYWGQGTQVTVSS	high polyreactivity
QVQLVESGGGLVQAGGSLRVSCAASGFIFSYSAMGWYRQAPGKERELVAAISRSGGRTYYADSVKGRFTISRDNAKNTVYLQMNSLKPEDTAVYYCAAPVSLRPIYDYWGHGTQVTVSS	high polyreactivity
QVQLVESGGGLVQAGGSLRLSCAASGSTFRYYAMGWYRQAPGKERELVAAITSGGSTNYADSVKGRFTISRDNAKNTVYLQMNSLKPEDTAVYYCAAGRRLRHRYNQGGPDYGYWGQGTQVTVSS	low polyreactivity
QDQLVESGGGLVQAGGSLRLRCAASGSILWYYAMGWYRQAPGKERELVASISYSGGSTYYADSVKGRFTISRDNAKNTVYLQMNSLKPEDTAVYYCNADTITYQGYDYGYWGQGTQVTVSS	low polyreactivity
QVQLVDSGGGLVQAGGSLRLSCAASGSIYSSYAMGWYRQAPGKERELVASISSGGSKNYADSVKGRFTISRVNAKNTVYLQMNSLKPEDTAFYYCNVDLYNWRGDYTGYDYWGQGTQVTVSS	low polyreactivity
QGQLEESGGGLVQAGGSLRLSCAASGFTIYRYAKGWYRQAPGKAMELVAAISNSGGSTYYADSVKGRFTISRDNAKNTVYVQMNSLKPEDTAVYYCAADPGYNVYGYYYWGQGTQVTVSS	high polyreactivity

Sequence	polyreactivity (PSR sort gate)
QVQLVESGGGLVQAGGSLRLSCAASGITFKAYVMGWYRQAPGKERELVAAITRSGGRTYYADSVKGRFTISRDNAKNTVFLQMNSLKPEDTAVYYCAADGPHHGDGYWGQGTQVTVSS	high polyreactivity
QVQLVESGGGLVQAGGSLRLSCAASGRIFATNAMGWYIQAPGKERELVAAISWDGGSTYYADSVKGRFTISRDNAKNTVYLQMNSLKPEDTAVYYCNKVLYYAYDYWGQGTQVTVSS	low polyreactivity
QVQLVESGGGLVQAGGSLRLSCAASGFTFDLYAKGWYRQAPGKERELVAVITRGGSTYYADSVKGRFTISRDNAKNTVYLQMNSLKPEDTAVYYCAKYSIIDWWGGEDYWGQGTQVTVSS	high polyreactivity
QVQLVESGGGLVQAGGSLRLSCAASGFIFKFYAMGWYRQAPGKETELVAAISKSGGRTYYADSVKGRFTISRDNAKNSVYLQMNSLKPEDTAVYYCNAPSVGAAFDYWGQGTQVTVSS	high polyreactivity
QVQLVESGGGLVQAGGSLRLSCAASGRIFGYNDMGWYRQAPGKERELVAAINRTGGSTYYADSVKGRFTISRDNGKNTVYLQMNSLKPEDTAVYYCNAVARTKWVQTHTDFITDYDYWGQGTQVTVSS	low polyreactivity
QVQLVESGGGLVQAGGSLRLSCAASGYTFSDNAMGWSRQAPGKERDLVAAITSGVSKYFADSVKGRFTISRDNAKNTVYLQMNSLKPEDTADYYFAKDVAVYADLYQGAPYGYWGQGTQVTVSS	low polyreactivity
QVQLVESGGGLVQAGGSLRLSCAASGGTFPRYAMGWYRQAPGKERELVAAITRSGGRTYYADSVKGRFTISRDNAKNTVYLQMNSLKPEDTAVYYCAADAPDYRMDYWGQGTQVTVSS	high polyreactivity
QVQLVESGGGLVHAGGRLRLSCAASGRTLAPYAMGWYRQAPGKERELVADIDRGGGSTYYADSVTGRFTISRDNAKNTVYLQMNSVKPEDTAVYYCYVDETGVLVAYTFDYWGQGTQVTVSS	low polyreactivity
QVQLVESGGGLVQAGGSLRLTCAASGRIFYGYTMGWYRKAPGKERELVAAITRRGGRTYYADSVKGRFTISRDNAKNTVYLQMNCLKPEDTAVYYCAATRSGEYDYWGQGTQVTVSS	high polyreactivity
QVQLVESGGGLVQAGGSLRLSCAASGSTLAGYAMGWYRPAPGKERELVAAIDWTGGSTTYADSVKGRFTISRDNAKNTVYLQMNSLKPEDTAVYYCNVDLGVNGDYWGQGTQVTVSS	low polyreactivity
QVKLVESGGRLVQAGGSLRLSCAASGSIFYYYAMGWYRQAPVKERELVAAITNYADSVKGRFTISRDNAKNTVYLQMNSLKPEDTAVYYCAADWWRVEMDYWGQGTQVTVSS	low polyreactivity
QVQLVESGGGLVQAGGSLRLSCAASGLTFGRYAMGWYRQAPGKERELVAVINRGGNTYYADSVKGRFTISRDNAKNTVYLQMNSLKPEDTAVYYCAADYLRWAGRYFSWDYDYWGQGTQVTVSS	high polyreactivity
QVQLVESGGGLVQAGGSLRLSCAASGRTFIYNAMAWYRQAPWKERELVAGITRSGGSTYYADSVKGRFTISRDNAKNTVYLQMNSLKPEDTAVYYCAAARRTKTFSSYYYWGQGTQVTVSS	high polyreactivity
QVQLVESGGGLVQAGGSLRLSCAASGSTFTLYAMGWYRQAPGKERELVATIDWSGGSTYYADSVKGRFTISRDNAKNTVYLQMNSLKPEDTAVYYCAADSYVVFYRGYTFIAVHSYEYWGQGTQVTVSS	low polyreactivity
QVQLVESGGGLVQAGGSLRLICAASGRIFHPYAMAWYRQAPGKERELVATISWSGGSTTYEDSVKGRFTISRDNAKNTVYLQMNSLKPEDTAVYYCNADYWWSYVRFVYWGQGTQVTVSS	low polyreactivity
QVQLVESGGGLVQAGGSLRLSCAASGFIFLYYAMGWYRQAPGKERELVADISRGADTKYADSVKGRFTISRDNAKNTVYLQMNSLKPEDTAVYYCATDITTFWVPYPGVELGYWGQGTQVTVSS	low polyreactivity
